What was measured:
[1] = molecular target: HLA-A*02:01; test: IEDB peptide-MHC binding, purified MHC/direct/fluorescence; filed as Kd, often an IC50 or EC50 that approximates it; ≥ and ≤ were set here for values at or beyond the usual limits of such assays
[2] = molecular target: HLA-A*11:01; test: as above
[3] = molecular target: HLA-A*31:01; test: as above
[4] = molecular target: HLA-B*07:02; test: as above
[5] = molecular target: HLA-B*27:05; test: as above
[6] = molecular target: HLA-B*40:01; test: as above
[7] = molecular target: HLA-B*48:01; test: as above; conditions: source organism: Mycobacterium tuberculosis
[8] = molecular target: HLA-B*58:01; test: as above
[9] = molecular target: HLA-A*01:01; test: IEDB peptide-MHC binding, purified MHC/competitive/fluorescence; filed as Kd, often an IC50 or EC50 that approximates it; ≥ and ≤ were set here for values at or beyond the usual limits of such assays; conditions: source organism: Mycobacterium tuberculosis variant bovis BCG str. Pasteur 1173P2
[10] = molecular target: HLA-A*02:06; test: as above
[11] = molecular target: HLA-A*26:01; test: as above; conditions: source organism: Mycobacterium tuberculosis variant bovis BCG str. Pasteur 1173P2
[12] = molecular target: HLA-A*26:02; test: as above; conditions: source organism: Mycobacterium tuberculosis variant bovis BCG str. Pasteur 1173P2
[13] = molecular target: HLA-A*26:03; test: as above; conditions: source organism: Mycobacterium tuberculosis variant bovis BCG str. Pasteur 1173P2
[14] = molecular target: HLA-A*68:02; test: as above; conditions: source organism: Mycobacterium tuberculosis variant bovis BCG str. Pasteur 1173P2
[15] = molecular target: HLA-A*69:01; test: as above
[16] = molecular target: HLA-B*15:17; test: as above; conditions: source organism: Mycobacterium tuberculosis variant bovis BCG str. Pasteur 1173P2
[17] = molecular target: HLA-A*01:01; test: IEDB peptide-MHC binding, purified MHC/direct/fluorescence; filed as Kd, often an IC50 or EC50 that approximates it; ≥ and ≤ were set here for values at or beyond the usual limits of such assays
[18] = molecular target: HLA-A*69:01; test: as above
[19] = molecular target: HLA-B*46:01; test: as above; conditions: source organism: Mycobacterium tuberculosis
[20] = molecular target: HLA-B*57:01; test: as above; conditions: source organism: Mycobacterium tuberculosis
[21] = molecular target: HLA-B*15:01; test: IEDB peptide-MHC binding, purified MHC/competitive/fluorescence; filed as Kd, often an IC50 or EC50 that approximates it; ≥ and ≤ were set here for values at or beyond the usual limits of such assays; conditions: source organism: Mycobacterium tuberculosis variant bovis BCG str. Pasteur 1173P2
[22] = molecular target: HLA-B*18:01; test: as above; conditions: source organism: Mycobacterium tuberculosis variant bovis BCG str. Pasteur 1173P2
[23] = molecular target: HLA-B*35:01; test: as above; conditions: source organism: Mycobacterium tuberculosis variant bovis BCG str. Pasteur 1173P2
[24] = molecular target: HLA-A*02:01; test: IEDB peptide-MHC binding, cellular MHC/competitive/fluorescence; ≥ and ≤ were set here for values at or beyond the usual limits of such assays
[25] = molecular target: HLA-A*02:01; test: IEDB peptide-MHC binding, purified MHC/competitive/fluorescence; filed as Kd, often an IC50 or EC50 that approximates it; ≥ and ≤ were set here for values at or beyond the usual limits of such assays; conditions: source organism: human gammaherpesvirus 4
[26] = molecular target: HLA-A*02:03; test: as above; conditions: source organism: human gammaherpesvirus 4
[27] = molecular target: HLA-A*02:11; test: as above; conditions: source organism: human gammaherpesvirus 4
[28] = molecular target: HLA-A*02:12; test: as above; conditions: source organism: human gammaherpesvirus 4
[29] = molecular target: HLA-A*02:16; test: as above; conditions: source organism: human gammaherpesvirus 4
[30] = molecular target: HLA-A*02:19; test: as above; conditions: source organism: human gammaherpesvirus 4
[31] = molecular target: HLA-A*26:02; test: IEDB peptide-MHC binding, purified MHC/direct/fluorescence; filed as Kd, often an IC50 or EC50 that approximates it; ≥ and ≤ were set here for values at or beyond the usual limits of such assays; conditions: source organism: West Nile virus strain PTRoxo
[32] = molecular target: HLA-A*32:07; test: IEDB peptide-MHC binding, purified MHC/competitive/fluorescence; filed as Kd, often an IC50 or EC50 that approximates it; ≥ and ≤ were set here for values at or beyond the usual limits of such assays; conditions: source organism: West Nile virus
[33] = molecular target: HLA-A*32:15; test: as above; conditions: source organism: West Nile virus
[34] = molecular target: HLA-B*15:42; test: as above; conditions: source organism: West Nile virus
[35] = molecular target: HLA-B*45:06; test: as above; conditions: source organism: West Nile virus
[36] = molecular target: HLA-B*83:01; test: as above; conditions: source organism: West Nile virus
[37] = molecular target: HLA-C*05:01; test: IEDB peptide-MHC binding, purified MHC/direct/fluorescence; filed as Kd, often an IC50 or EC50 that approximates it; ≥ and ≤ were set here for values at or beyond the usual limits of such assays
[38] = molecular target: HLA-C*06:02; test: as above; conditions: source organism: Entamoeba histolytica HM-1:IMSS
[39] = molecular target: HLA-C*07:02; test: as above; conditions: source organism: Entamoeba histolytica HM-1:IMSS
[40] = molecular target: HLA-C*08:02; test: as above
[41] = molecular target: HLA-A*03:01; test: as above; conditions: source organism: Burkholderia mallei
[42] = molecular target: HLA-A*24:03; test: as above; conditions: source organism: Burkholderia mallei
[43] = molecular target: HLA-A*26:01; test: as above; conditions: source organism: Burkholderia mallei
[44] = molecular target: HLA-B*08:01; test: as above; conditions: source organism: Burkholderia mallei
[45] = molecular target: HLA-B*15:01; test: as above; conditions: source organism: Burkholderia mallei
[46] = molecular target: HLA-B*35:01; test: as above; conditions: source organism: Burkholderia mallei
[47] = molecular target: HLA-B*14:02; test: as above; conditions: source organism: Homo sapiens
[48] = source organism: Mycobacterium tuberculosis
[49] = source organism: Mycobacterium tuberculosis variant bovis BCG str. Pasteur 1173P2
[50] = source organism: human gammaherpesvirus 4
[51] = source organism: Entamoeba histolytica HM-1:IMSS
[52] = source organism: Burkholderia mallei
[53] = source organism: Burkholderia pseudomallei 91

**Q.** ATADLELAY was tested. Which Kd [1, 48] did it give?
**A.** 0.818 µM

**Q.** What about the Kd [2, 48] of the same sequence?
**A.** 0.0105 µM

**Q.** And the Kd [3, 48]?
**A.** ≥ 20 µM

**Q.** What about the Kd [4, 48] of the same sequence?
**A.** ≥ 20 µM

**Q.** What about the Kd [5, 48] of the same sequence?
**A.** ≥ 20 µM

**Q.** And the Kd [6, 48]?
**A.** ≥ 20 µM

**Q.** And the Kd [7]?
**A.** ≥ 20 µM

**Q.** What about the Kd [8, 48] of the same sequence?
**A.** 0.0098 µM

**Q.** And the Kd [9]?
**A.** 0.0227 µM

**Q.** What about the Kd [10, 49] of the same sequence?
**A.** 2.5 µM

**Q.** What about the Kd [11] of the same sequence?
**A.** 0.428 µM

**Q.** And the Kd [12]?
**A.** 0.13 µM

**Q.** What about the Kd [13] of the same sequence?
**A.** ≥ 20 µM

**Q.** And the Kd [14]?
**A.** ≥ 20 µM

**Q.** And the Kd [15, 49]?
**A.** ≥ 20 µM

**Q.** And the Kd [16]?
**A.** 0.0111 µM

**Q.** AVFLSYIGY was tested. Which Kd [17, 48] did it give?
**A.** ≥ 20 µM

**Q.** And the Kd [1, 48]?
**A.** ≥ 20 µM

**Q.** What about the Kd [2, 48] of the same sequence?
**A.** 1.56 µM

**Q.** And the Kd [3, 48]?
**A.** ≥ 20 µM

**Q.** And the Kd [18, 48]?
**A.** ≥ 20 µM

**Q.** And the Kd [4, 48]?
**A.** ≥ 20 µM

**Q.** What about the Kd [5, 48] of the same sequence?
**A.** ≥ 20 µM

**Q.** What about the Kd [6, 48] of the same sequence?
**A.** ≥ 20 µM

**Q.** What about the Kd [19] of the same sequence?
**A.** ≥ 20 µM

**Q.** And the Kd [7]?
**A.** ≥ 20 µM

**Q.** What about the Kd [20] of the same sequence?
**A.** ≥ 20 µM

**Q.** What about the Kd [8, 48] of the same sequence?
**A.** 17 µM

**Q.** And the Kd [11]?
**A.** ≥ 20 µM

**Q.** What about the Kd [13] of the same sequence?
**A.** ≥ 20 µM

**Q.** And the Kd [14]?
**A.** 3.04 µM

**Q.** What about the Kd [21] of the same sequence?
**A.** 1.84 µM

**Q.** What about the Kd [16] of the same sequence?
**A.** 0.315 µM

**Q.** What about the Kd [22] of the same sequence?
**A.** ≥ 20 µM

**Q.** What about the Kd [23] of the same sequence?
**A.** 3.95 µM

**Q.** CLGGLLTMV was tested. Which IC50 [24, 50] did it give?
**A.** 2.5 µM

**Q.** What about the Kd [25] of the same sequence?
**A.** 0.023 µM

**Q.** And the Kd [26]?
**A.** 0.00067 µM

**Q.** What about the Kd [10, 50] of the same sequence?
**A.** ≤ 0.0001 µM

**Q.** And the Kd [27]?
**A.** ≤ 0.0001 µM

**Q.** And the Kd [28]?
**A.** ≤ 0.001 µM

**Q.** And the Kd [29]?
**A.** ≤ 0.0001 µM

**Q.** What about the Kd [30] of the same sequence?
**A.** 0.0075 µM

**Q.** And the Kd [15, 50]?
**A.** 3.17 µM

**Q.** ETTNWLWAF was tested. Which Kd [31] did it give?
**A.** ≤ 0.001 µM

**Q.** And the Kd [32]?
**A.** 0.0263 µM

**Q.** And the Kd [33]?
**A.** 0.0251 µM

**Q.** And the Kd [34]?
**A.** ≥ 5 µM

**Q.** What about the Kd [35] of the same sequence?
**A.** ≥ 5 µM

**Q.** And the Kd [36]?
**A.** ≥ 5 µM

**Q.** With FAMRLLQAV as the sequence, how does the Kd [37, 51] read?
**A.** 3.17 µM

**Q.** What about the Kd [38] of the same sequence?
**A.** 0.844 µM

**Q.** What about the Kd [39] of the same sequence?
**A.** 2.89 µM

**Q.** And the Kd [40, 51]?
**A.** 0.017 µM

**Q.** Which Kd [17, 52] does the source give for ISDSAQNMM here?
**A.** 1.04 µM

**Q.** What about the Kd [1, 52] of the same sequence?
**A.** ≥ 20 µM

**Q.** And the Kd [41]?
**A.** ≥ 20 µM

**Q.** And the Kd [2, 52]?
**A.** ≥ 20 µM

**Q.** And the Kd [42]?
**A.** ≥ 20 µM

**Q.** What about the Kd [43] of the same sequence?
**A.** ≥ 20 µM

**Q.** What about the Kd [3, 52] of the same sequence?
**A.** ≥ 20 µM

**Q.** What about the Kd [18, 52] of the same sequence?
**A.** ≥ 20 µM

**Q.** And the Kd [4, 52]?
**A.** ≥ 20 µM

**Q.** And the Kd [44]?
**A.** ≥ 20 µM

**Q.** And the Kd [45]?
**A.** ≥ 20 µM

**Q.** What about the Kd [5, 52] of the same sequence?
**A.** ≥ 20 µM

**Q.** And the Kd [46]?
**A.** 0.0402 µM

**Q.** What about the Kd [6, 52] of the same sequence?
**A.** ≥ 20 µM

**Q.** And the Kd [8, 52]?
**A.** 0.151 µM

**Q.** And the Kd [37, 53]?
**A.** 0.003 µM

**Q.** What about the Kd [40, 53] of the same sequence?
**A.** ≤ 0.001 µM

**Q.** With KMDASLGNLFA as the sequence, how does the IC50 ([24]; source organism: Homo sapiens) read?
**A.** 1.11 µM

**Q.** With LLLDVPTAAV as the sequence, how does the IC50 ([24]; source organism: Homo sapiens) read?
**A.** 0.53 µM

**Q.** LQVAHEEI was tested. Which Kd [47] did it give?
**A.** 0.528 µM

**Q.** With NQIIHRDL as the sequence, how does the Kd [47] read?
**A.** 0.13 µM

**Q.** VSPLHRVL was tested. Which Kd [47] did it give?
**A.** 0.0896 µM

— the Immune Epitope Database (IEDB)
